This note sets out measurements from the supplement of paper PMC10724198.

In this data set the test system is Saccharomyces cerevisiae. Briefly: protein stability index of tFT-peptide fusion (C-terminal peptide) (PSI (0-1 scale)); higher = more stable (slower turnover). The following applies: temperature: 30 C. On the procedure: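 MPS profiling in S. cerevisiae of the yeast C-terminome library: the last 12 aa of each annotated ORF are fused to the C-terminus of a sfGFP-mCherry timer, after a GGGS linker. Cells are FACS-sorted into 8 mCherry/sfGFP bins and deep-sequenced. PSI runs from 0 (unstable) to 1 (stable); wild type and das1Δ backgrounds, two technical replicates each.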

[1] abbreviates: genetic background: das1 deletion.

± gives the standard deviation of the averaged measurements.

Regarding GYSPKPISKKEE [ALE1 C-terminal 12 aa], the protein stability index reads like this: under setting [1], 0.719 ± 0.011; (genetic background: wild type) 0.648 ± 0.012.

In turn, “GYWEDVFVHLAL [HMLALPHA1 C-terminal 12 aa]” came in with a protein stability index under setting [1] of 0.7685 ± 0.0061 and a protein stability index (genetic background: wild type) of 0.757 ± 0.012.

For HDELKYPVDMVI [PDR17 C-terminal 12 aa], the protein stability index was determined as 0.705 ± 0.022 under setting [1] and 0.757 ± 0.058 (genetic background: wild type).

Sequence HELKTHLPLNLI [SMT1 C-terminal 12 aa] had a protein stability index under setting [1] of 0.707 ± 0.018 and a protein stability index (genetic background: wild type) of 0.697 ± 0.037.

Consider HEVQNAEQEVAQ [MAK16 C-terminal 12 aa], for which the protein stability index stood at 0.673 ± 0.0074 under setting [1] and 0.681 ± 0.034 (genetic background: wild type).

As for HHLTYLPSVPSL [MMO1 C-terminal 12 aa], the protein stability index reads like this: under setting [1], 0.715 ± 0.025; (genetic background: wild type) 0.71 ± 0.053.

As to HHNQIGVPRVEN [GID8 C-terminal 12 aa], the protein stability index under setting [1] was 0.679 ± 0.013 and the protein stability index (genetic background: wild type) was 0.674 ± 0.011.

With HKELLAKLEGSD [HNT1 C-terminal 12 aa], the protein stability index is, setting by setting: under setting [1], 0.688 ± 0.0052; (genetic background: wild type) 0.703 ± 0.025.

With HNLHSYEKRLYN [IMD4 C-terminal 12 aa], the protein stability index by setting is: under setting [1], 0.702 ± 0.025; (genetic background: wild type) 0.672 ± 0.013.

Regarding HQKTKTLASLSI [NUP49 C-terminal 12 aa], the protein stability index reads like this: under setting [1], 0.707 ± 0.014; (genetic background: wild type) 0.631 ± 0.0093.

Turning to “HQNENMFLTELY [YDL247W-A C-terminal 12 aa]”, the protein stability index by setting is: under setting [1], 0.7214 ± 0.0031; (genetic background: wild type) 0.707 ± 0.067.

Turning to “HTRQGNITQTKY [YKL100W-A C-terminal 12 aa]”, the protein stability index stood at 0.698 ± 0.017 under setting [1] and 0.692 ± 0.043 (genetic background: wild type).

For the sequence HYEAVRANFEGA [PEX6 C-terminal 12 aa], the protein stability index was found to be 0.7023 ± 0.0047 under setting [1] and 0.724 ± 0.012 (genetic background: wild type).

IADASSLSWNMK [LEM3 C-terminal 12 aa]: the protein stability index under setting [1] was determined as 0.697 ± 0.038 and the protein stability index (genetic background: wild type) was found to be 0.719 ± 0.011.

IAEIASAVDKYS [MHT1 C-terminal 12 aa]: the protein stability index came to 0.7183 ± 0.0018 under setting [1] and 0.726 ± 0.047 (genetic background: wild type).

As for IAIGFGVGITRE [BUD8 C-terminal 12 aa], the protein stability index by setting is: under setting [1], 0.688 ± 0.035; (genetic background: wild type) 0.739 ± 0.022.

As for IARPFELKYFGR [FCY21 C-terminal 12 aa], the protein stability index by setting is: under setting [1], 0.7199 ± 0.006; (genetic background: wild type) 0.718 ± 0.001.

Consider IATIENKFDFEI [YCR099C C-terminal 12 aa], for which the protein stability index is, setting by setting: under setting [1], 0.712 ± 0.013; (genetic background: wild type) 0.694 ± 0.042.

In the case of IAVNYCMFGRSY [YHR020W C-terminal 12 aa], the protein stability index runs as follows: under setting [1], 0.685 ± 0.022; (genetic background: wild type) 0.73 ± 0.061.

As for “ICFREFFDRVET [YJL077W-B C-terminal 12 aa]”, the protein stability index under setting [1] came out at 0.714 ± 0.056 and the protein stability index (genetic background: wild type) turned out to be 0.6732 ± 0.0058.

For the sequence IDFLVEEATLNE [YAP3 C-terminal 12 aa], the protein stability index by setting is: under setting [1], 0.70065 ± 9.1e-05; (genetic background: wild type) 0.673 ± 0.032.

As to IEAATQAFLDSQ [WIP1 C-terminal 12 aa], the protein stability index runs as follows: under setting [1], 0.698 ± 0.013; (genetic background: wild type) 0.715 ± 0.051.

IERLFKEEEYYS [TCD1 C-terminal 12 aa]: the protein stability index was determined as 0.70198 ± 0.00056 under setting [1] and 0.703 ± 0.011 (genetic background: wild type).

Consider IGIGFGVGIIRE [BUD9 C-terminal 12 aa], for which the protein stability index was found to be 0.698 ± 0.052 under setting [1] and 0.686 ± 0.036 (genetic background: wild type).

Take IIQDNISPRLVV [RRP46 C-terminal 12 aa]: the protein stability index stood at 0.661 ± 0.034 under setting [1] and 0.665 ± 0.017 (genetic background: wild type).

Regarding IIQKETQSAGDK [PZF1 C-terminal 12 aa], the protein stability index turned out to be 0.661 ± 0.013 under setting [1] and 0.678 ± 0.024 (genetic background: wild type).

Regarding IKGKFYVKILGN [YGR115C C-terminal 12 aa], the protein stability index under setting [1] was 0.635 ± 0.036 and the protein stability index (genetic background: wild type) came to 0.648 ± 0.012.

As to IKIFSERCDGKV [JJJ2 C-terminal 12 aa], the protein stability index reads like this: under setting [1], 0.7066 ± 0.002; (genetic background: wild type) 0.683 ± 0.0069.

For the sequence “IKLLKTHNRMSL [YNL277W-A C-terminal 12 aa]”, the protein stability index reads like this: under setting [1], 0.6846 ± 0.0031; (genetic background: wild type) 0.696 ± 0.036.

As for IKNRLNGLKYRL [YML020W C-terminal 12 aa], the protein stability index was determined as 0.751 ± 0.0083 under setting [1] and 0.6784 ± 0.0056 (genetic background: wild type).

As to ILAENEIEVSRG [FET5 C-terminal 12 aa], the protein stability index came out at 0.7042 ± 0.00013 under setting [1] and 0.705 ± 0.0081 (genetic background: wild type).

For ILERRLNEDHDC [KXD1 C-terminal 12 aa], the protein stability index runs as follows: under setting [1], 0.696 ± 0.025; (genetic background: wild type) 0.6885 ± 0.0056.

With ILILFTSINQRG [YOR366W C-terminal 12 aa], the protein stability index under setting [1] was determined as 0.589 ± 0.037 and the protein stability index (genetic background: wild type) came out at 0.605 ± 0.039.

In turn, ILMNEFAFNPKV [LEU3 C-terminal 12 aa] displayed a protein stability index under setting [1] of 0.728 ± 0.027 and a protein stability index (genetic background: wild type) of 0.708 ± 0.044.

For the sequence ILTQGGHIIKKK [MNL2 C-terminal 12 aa], the protein stability index reads like this: under setting [1], 0.715 ± 0.017; (genetic background: wild type) 0.6938 ± 0.0012.

Take IMDKLRAMKNRM [GLO2 C-terminal 12 aa]: the protein stability index reads like this: under setting [1], 0.689 ± 0.053; (genetic background: wild type) 0.663 ± 0.032.

Turning to “IMSTASAQFVGN [YIR018C-A C-terminal 12 aa]”, the protein stability index under setting [1] was 0.687 ± 0.011 and the protein stability index (genetic background: wild type) was 0.664 ± 0.0089.

With INKTLAWMDEGL [ERG26 C-terminal 12 aa], the protein stability index is, setting by setting: under setting [1], 0.694 ± 0.013; (genetic background: wild type) 0.728 ± 0.055.

INPMPANFAELS [FAL1 C-terminal 12 aa]: the protein stability index runs as follows: under setting [1], 0.721 ± 0.017; (genetic background: wild type) 0.689 ± 0.049.

Consider IPSIGKPKTIKI [BUD17 C-terminal 12 aa], for which the protein stability index is, setting by setting: under setting [1], 0.672 ± 0.015; (genetic background: wild type) 0.7017 ± 0.0033.

As to IPTSFFFFNSIV [YKL123W C-terminal 12 aa], the protein stability index runs as follows: under setting [1], 0.734 ± 0.034; (genetic background: wild type) 0.305 ± 0.0033.

For “IQFFSQCTSCTV [YLR286W-A C-terminal 12 aa]”, the protein stability index amounted to 0.507 ± 0.0085 under setting [1] and 0.5256 ± 0.004 (genetic background: wild type).

IQYYEEILRRGL [SPP1 C-terminal 12 aa]: the protein stability index under setting [1] was 0.683 ± 0.024 and the protein stability index (genetic background: wild type) worked out at 0.677 ± 0.027.

For IRCVFMFRTNAK [YLR296W C-terminal 12 aa], the protein stability index reads like this: under setting [1], 0.578 ± 0.03; (genetic background: wild type) 0.595 ± 0.018.

In the case of IRDAKFCDKHED [BOR1 C-terminal 12 aa], the protein stability index runs as follows: under setting [1], 0.6971 ± 0.0014; (genetic background: wild type) 0.671 ± 0.035.

Consider IRLKRRDFMKNL [RRT12 C-terminal 12 aa], for which the protein stability index runs as follows: under setting [1], 0.689 ± 0.0069; (genetic background: wild type) 0.382 ± 0.0049.

In the case of ISKKYYSRYDKK [OM14 C-terminal 12 aa], the protein stability index is, setting by setting: under setting [1], 0.683 ± 0.037; (genetic background: wild type) 0.616 ± 0.025.

ISTLKAIYNKMD [PEX9 C-terminal 12 aa] had a protein stability index under setting [1] of 0.69065 ± 0.0004 and a protein stability index (genetic background: wild type) of 0.672 ± 0.009.

On to ISWLEKMKKFFH [MAM33 C-terminal 12 aa], for which the protein stability index was found to be 0.7163 ± 0.0048 under setting [1] and 0.693 ± 0.009 (genetic background: wild type).

For the sequence ITLAELDVGDSE [CAF130 C-terminal 12 aa], the protein stability index is 0.703 ± 0.03 under setting [1] and 0.7119 ± 0.0027 (genetic background: wild type).

With ITNATFREIDDA [SEC12 C-terminal 12 aa], the protein stability index runs as follows: under setting [1], 0.692 ± 0.0098; (genetic background: wild type) 0.671 ± 0.03.

For “ITNFFRVLVRLV [YER067C-A C-terminal 12 aa]”, the protein stability index came to 0.526 ± 0.024 under setting [1] and 0.155 ± 0.0039 (genetic background: wild type).

With IVCGDGSIHWFQ [FAU1 C-terminal 12 aa], the protein stability index is 0.735 ± 0.0094 under setting [1] and 0.769 ± 0.041 (genetic background: wild type).

“IVFTSVGAFNIL [YMR172C-A C-terminal 12 aa]”: the protein stability index is, setting by setting: under setting [1], 0.717 ± 0.016; (genetic background: wild type) 0.7349 ± 0.0029.

Turning to IVNIKILRRNSR [LDB16 C-terminal 12 aa], the protein stability index came to 0.796 ± 0.014 under setting [1] and 0.7813 ± 0.003 (genetic background: wild type).

For the sequence IVSFLSDETKSP [ECM18 C-terminal 12 aa], the protein stability index is 0.7282 ± 0.0009 under setting [1] and 0.714 ± 0.011 (genetic background: wild type).

With IWLVYKLYCFIF [CST26 C-terminal 12 aa], the protein stability index is, setting by setting: under setting [1], 0.3724 ± 0.0025; (genetic background: wild type) 0.3155 ± 0.0014.

Take “IYVCGRLTNDRK [YIL171W-A C-terminal 12 aa]”: the protein stability index under setting [1] amounted to 0.6871 ± 0.0066 and the protein stability index (genetic background: wild type) stood at 0.65 ± 0.015.

Sequence KAGEMVLKSLRR [SCP160 C-terminal 12 aa] registered a protein stability index under setting [1] of 0.67 ± 0.028 and a protein stability index (genetic background: wild type) of 0.783 ± 0.017.

In the case of KAKSRREGTTRT [STU2 C-terminal 12 aa], the protein stability index reads like this: under setting [1], 0.7121 ± 0.0033; (genetic background: wild type) 0.694 ± 0.013.

In the case of KCEEVNDGLRWK [EHD3 C-terminal 12 aa], the protein stability index under setting [1] came out at 0.6964 ± 0.0049 and the protein stability index (genetic background: wild type) turned out to be 0.711 ± 0.1.

In the case of KCLYVQVITKSN [ECM8 C-terminal 12 aa], the protein stability index reads like this: under setting [1], 0.5487 ± 0.0052; (genetic background: wild type) 0.256 ± 0.019.

Consider KDNTVDIYDVNG [TGS1 C-terminal 12 aa], for which the protein stability index under setting [1] is 0.687 ± 0.023 and the protein stability index (genetic background: wild type) was determined as 0.682 ± 0.013.

Take KEYISDQRKKRK [LOA1 C-terminal 12 aa]: the protein stability index reads like this: under setting [1], 0.6823 ± 0.00078; (genetic background: wild type) 0.722 ± 0.023.

Turning to KFLRYNPLEKRD [RPB10 C-terminal 12 aa], the protein stability index was 0.693 ± 0.012 under setting [1] and 0.704 ± 0.02 (genetic background: wild type).

With KFNLVTQRENSL [YGR025W C-terminal 12 aa], the protein stability index runs as follows: under setting [1], 0.697 ± 0.021; (genetic background: wild type) 0.695 ± 0.026.

For the sequence KGGEDGSLVSSN [NHP10 C-terminal 12 aa], the protein stability index by setting is: under setting [1], 0.688 ± 0.014; (genetic background: wild type) 0.709 ± 0.011.
